Measured values: patent US20220119531A1 (I MAB BIOPHARMA US, published 2022)

B1: Hu1210-41 (antibody, V domains shown)
VH: EVQLVESGGGLVQPGGSLRLSCAASGFTFSSYDMSWVRQAPGKSLEWVATISDAGGYIYYSDSVKGRFTISRDNAKNSLYLQMNSLRDEDTAVYICAREFGKRYALDYWGQGTTVTVSS
VL: DIQMTQSPSSLSASVGDRVTITCKASQDVTPAVAWYQQKPGKAPKLLIYSTSSRYTGVPSRFSGSGSGTDFTFTISSLQPEDIATYYCQQHYTTPLTFGQGTKLEIK
notes: Humanized; also called Hu1210-41 antibody; parental antibody Hu1210-41
B2: WT (S60R mutant of Hu1210-41) (antibody, V domains shown)
VH: EVQLVESGGGLVQPGGSLRLSCAASGFTFSSYDMSWVRQAPGKSLEWVATISDAGGYIYYRDSVKGRFTISRDNAKNSLYLQMNSLRDEDTAVYICAREFGKRYALDYWGQGTTVTVSS
VL: DIQMTQSPSSLSASVGDRVTITCKASQDVTPAVAWYQQKPGKAPKLLIYSTSSRYTGVPSRFSGSGSGTDFTFTISSLQPEDIATYYCQQHYTTPLTFGQGTKLEIK
notes: Differs from Hu1210-41 by S60R (Kabat) in the heavy chain; Detected with anti-human IgG; also called S6OR (CDRH2) mutant; parental antibody WT
B3: Hu1210-41 Fab (Fab, V domains shown)
VH: EVQLVESGGGLVQPGGSLRLSCAASGFTFSSYDMSWVRQAPGKSLEWVATISDAGGYIYYSDSVKGRFTISRDNAKNSLYLQMNSLRDEDTAVYICAREFGKRYALDYWGQGTTVTVSS
VL: DIQMTQSPSSLSASVGDRVTITCKASQDVTPAVAWYQQKPGKAPKLLIYSTSSRYTGVPSRFSGSGSGTDFTFTISSLQPEDIATYYCQQHYTTPLTFGQGTKLEIK

Assays:
[1] = target: T1, human PD-L1 expressed on mammalian cells (human, UniProt Q9NZQ7 19-290); assay: FACS on PD-L1 Raji cells by the text; the axis unit is printed only as 'ng', no volume
T1 construct: whole, on cells; The cell line (CHOK1 or Raji) is named under assay in each row; also called PDL1-CHOK1 cells; PD-L1 Raji cells
Experimental: Briefly, PD-L1 Raji cells were first incubated with 5-fold serially diluted humanized antibodies starting at 2 μg/ml at RT for 1 hour. After wash by FACS buffer (PBS with 2% FBS), the Alexa 488-anti-human IgG antibody was added to each well and incubated at RT for 1 hour. The MFI of Alexa 488 were evaluated by FACSAriaIII.

PD-L1 N183A clone = target: T2, PD-L1 N183A clone (human, UniProt Q9NZQ7 19-290, limits assumed); assay: alanine-scan library, high-throughput flow cytometry; threshold for critical clones
T2 construct: Read by flow cytometry
Description: (§1) An alanine-scan library of PD-L1 was constructed. Briefly, 217 mutant clones of PD-L1 were generated on Integral Molecular's protein engineering platform. […] For each PD-L1 variant, the mean binding value was plotted as a function of expression (control anti-PD-L1 mAb reactivity).

[2] = target: T3, PD-L1 Y134 alanine-scan mutant (human, UniProt Q9NZQ7 19-290, limits assumed); assay: as above
T3 construct: Read by flow cytometry
Description: as §1

[3] = target: T4, PD-L1 K162 alanine-scan mutant (human, UniProt Q9NZQ7 19-290, limits assumed); assay: as above
T4 construct: Read by flow cytometry
Description: as §1

T1 sequence (Q9NZQ7 19-290): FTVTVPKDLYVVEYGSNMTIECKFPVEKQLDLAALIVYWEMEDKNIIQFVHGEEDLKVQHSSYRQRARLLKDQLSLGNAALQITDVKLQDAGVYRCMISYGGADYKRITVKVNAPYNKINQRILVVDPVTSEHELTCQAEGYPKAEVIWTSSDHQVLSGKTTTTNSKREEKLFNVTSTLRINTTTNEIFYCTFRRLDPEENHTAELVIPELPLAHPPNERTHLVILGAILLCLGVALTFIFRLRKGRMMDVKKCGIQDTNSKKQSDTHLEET
T2 sequence (Q9NZQ7 19-290 N183A limits assumed): as the sequence (Q9NZQ7 19-290) above, with N165A counted along it
T4 sequence (Q9NZQ7 other isoform, or with tags, fused parts or gaps mutant limits assumed): as the sequence (Q9NZQ7 19-290) above, with K144A counted along it
T3 sequence (Q9NZQ7 other isoform, or with tags, fused parts or gaps mutant limits assumed): as the sequence (Q9NZQ7 19-290) above, with Y116A counted along it

| Binder | EC50 (read off the curve) [1] [ng] | % WT reactivity (PD-L1 N183A clone) | % WT reactivity [2] | % WT reactivity [3] |
| --- | --- | --- | --- | --- |
| B1 | ~0.5 | – | – | – |
| B2 | ~0.4 | – | – | – |
| B3 | – | < 30 % of WT | < 30 % of WT | < 30 % of WT |
